In article PMC8359418, “Genome‐wide analysis of in vivo CcpA binding with and without its key co‐factor HPr in the major human pathogen group A Streptococcus” (Molecular Microbiology, 2020):

B1: HPr endogenous in GAS strains MGAS2221 and 2221-CcpA-V301A (natural protein)
chain: MASKDFHIVAETGIHARPATLLVQTASKFASDITLDYKGKAVNLKSIMGVMSLGVGQGADVTISAEGADAEDAIAAIEETMTKEGLA
notes: Phosphocarrier protein HPr (ptsH) of Streptococcus pyogenes serotype emm1 strain MGAS2221 and its isoallelic derivative; Detected with an anti-HPr antibody; the phosphorylation state of the co-precipitated HPr was not determined (by Phos-tag gels most cellular HPr was unphosphorylated); also called HPr~P; source: endogenous, lysates of cross-linked MGAS2221 and 2221-CcpA-V301A cells

Tests used:
[1] = target: recombinant wild type GAS CcpA (catabolite control protein A) (group A Streptococcus (Streptococcus pyogenes)); assay: SPR; CcpA (3,700 RU) or CcpAV301A (4,200 RU) immobilised on CM5 by amine coupling; HPr or HPrSer46~P injected, 2-fold dilutions 1.25 to 80 uM; PBS pH 7.4, 25°C; steady-state responses fitted to a one-site binding model; BIAcore T200
[2] = target: recombinant GAS CcpA with V301A change (group A Streptococcus (Streptococcus pyogenes)); assay: as above
[3] = target: T1, CcpA endogenous in GAS strain MGAS2221 (Streptococcus pyogenes (endogenous in …, UniProt Q9A118 1-333)); assay: co-IP; GAS strains grown to mid-exponential phase in THY, cross-linked with EGS and formaldehyde, sonicated; precipitated with polyclonal anti-CcpA antibody, Western blot with anti-HPr antibody, quantified (Odyssey); settings: partners not purified
T1 construct: Catabolite control protein A (CcpA) of Streptococcus pyogenes serotype emm1 strain MGAS2221 (gene content identical to MGAS5005); also called wild type CcpA; source: endogenous, lysate of cross-linked MGAS2221 cells

Molecule | Kd [1] [µM] | Kd [2] [µM] | fold more HPr co-immunoprecipitated than from strain 2221-CcpA-V301A [3] [fold]
recombinant GAS HPr (histidine-containing protein), unphosphorylated (natural protein) | 188 | – | –
recombinant GAS HPr phosphorylated at Ser46 (natural protein) | 5.8 | 153 | –
B1 | – | – | 10
